Results on 30 sequences are retold here after the nanobody polyreactivity screen of Harvey et al. (2022).

The nature of the data set: yeast display, Sf9 membrane polyspecificity reagent, FACS + sequencing; frameworks hold sequencing errors. In short, it runs like this: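 Polyreactivity labels are assigned by the sorting gate from which each nanobody was recovered. The gates were low and high (top ~1%), set on anti-HA fluorescence for expression and streptavidin fluorescence for reagent binding. Before sorting, galactose-induced (36–48 hours) yeast display cells were stained for 1 hour at 4 °C with 10% biotinylated, detergent-solubilized Sf9 membrane reagent.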
On to “QVQLVESGGGLVQAGGSLRLICAASGFIMRPYTMGWYRQAPGKERELVAAITSGGRTYYADSVKGRFTISRDNAKNTVYLQMNSLKPEDTAVYYCAALTYYRTVRTFSYPYDYWGQGTQVTVSS”, for which the “polyreactivity (PSR sort gate)” value is given as “high polyreactivity”.
As to “QVQLVESGGGLVQAGGSLRLICAASGFTFGYYPMGWYRQAPGKERELVAAINWSGVNTNYADSVKGRFTISRDNAKNTVYLQMNSVKPEDTAVYYCAADAGYDGYGYWGQGTQVTVSS”, the “polyreactivity (PSR sort gate)” value is recorded as “low polyreactivity”.
Under “QVQLVESGGGLVQAGGSLRLICAASGFTFNWYAMGWYRQAPGKERELVATISSTGSTYYADSVKGRFTISRDNAKNTVYLQMNSQKPEDTGVYYCAVRRPPYSYYWDFDSWGQGTPVTVSS” stands “high polyreactivity”; under “QVQLVESGGGLVQAGGSLRLICAASGFTFRAYAMGWYRQAPGKERELVAAISTVGGSTYYADSVKGRFTISRDNAKNTVYLQMNSLKPEETAVYYCAARRRTGREYGYWGKGTQVTVSS”, “high polyreactivity”; under “QVQLVESGGGLVQAGGSLRLICAASGFTFRGYAMGWYRQAPGKERELVAAIRRGVITNYADSVNGRFTISRDNAKNTVYLQMNSLKPEDTAVYYCAAGNITPYRYYHGYYQSIYDYWGQGTIVTVSS”, “low polyreactivity”.
For “QVQLVESGGGLVQAGGSLRLICAASGFTFSWYVMGWYRQAPGKERELVATITNRGGSTYYADSVKGRFTISRDTAKNTVYLQMNSLKPEDTAVYYCAARKKGSRVGYDYCGQGTQVTVSS”, the “polyreactivity (PSR sort gate)” value was “high polyreactivity”.
In the case of “QVQLVESGGGLVQAGGSLRLICAASGFTFSYYAMVWYRQAPGKERELVAVISDRGGITYYADSVKGRFTISRDNAKNTVYLQMNSLKPEDTAVYYCAAQNPRYNYRYYYWGQGTQVTVSS”, the “polyreactivity (PSR sort gate)” value is “low polyreactivity”.
Regarding “QVQLVESGGGLVQAGGSLRLICAASGFTFYLYTMGWYRPAPGKERELVASIRRSGGSTYYADSVKGRFTISRDNAKNTVYLQMNSLKPEDTAVYYCAKRTFLVSGPRSYGWYGVYYWGQGTQVTVSS”, the “polyreactivity (PSR sort gate)” value is recorded as “high polyreactivity”.
On to “QVQLVESGGGLVQAGGSLRLICAASGFTFYRYAMGWYRQAPGKERELVAAITRSGGSTYYADSVKGRFTISRDNAKNTVYLQMNSLKPEDTAVYYCARTYWITNSKFRDYLGAYGGDYWGQGTQVTVSS”, for which the “polyreactivity (PSR sort gate)” value is reported as “high polyreactivity”.
Regarding “QVQLVESGGGLVQAGGSLRLICAASGFTFYYYAMGWYRQAPGKEWELVAAISRNGVSTYYADSVKGRFTISRDNAKNTVYLQMNSLKPEDTAVYYCASGYGSLHVNYLGQGTQVTVSS”, the “polyreactivity (PSR sort gate)” value was “low polyreactivity”.
Consider “QVQLVESGGGLVQAGGSLRLICAASGFTYSWYAMGWYRQAPGKERELVAAISWDGDSTYYADSVKGRFTISRDIAKNSVYLQMISLKPEDTAVYYCAADFSYYWVGYDYWGQGTQVTVSS”, for which the “polyreactivity (PSR sort gate)” value is “high polyreactivity”.
Turning to “QVQLVESGGGLVQAGGSLRLICAASGGIFNRYAMGWYRQAPGKEREFVASISRRGGSTYYADSVKGRFTISRDNAKNTVYLQMNSLKPDDTAVYFCGAEYNSEYDYWGQGTQVTVSS”, the “polyreactivity (PSR sort gate)” value is “high polyreactivity”.
Take “QVQLVESGGGLVQAGGSLRLICAASGGIIYYYAMGWYRQAPGKERELVAGITSAGSTYYADSVKGRFTISRDNAKNTVYLQMNSLKPEDTAVYYCKDAWPGYYWYYDDDYWGQGTQVTVSS”: the “polyreactivity (PSR sort gate)” value is on record as “low polyreactivity”.
To “QVQLVESGGGLVQAGGSLRLICAASGGTFRAYVMGWYTQAPGKERELVAAISRSGTRTYYSDSVKGRFTISRDNAKNTVYFQMNSLKPEDTAVYYCAAAAKSWLFDYWGQGTLVTVSS” belongs “high polyreactivity”.
Turning to “QVQLVESGGGLVQAGGSLRLICAASGIIFPVYDMGWYRQAPGKERELVASITDSGGSTSYADSVKGRFTISRDNAKNTVYLQLNSLKPEDTAVYYCAVTDSDTNYYGYLSYDYWGQGTQVNVSS”, the “polyreactivity (PSR sort gate)” value was “low polyreactivity”.
Turning to “QVQLVESGGGLVQAGGSLRLICAASGITFFRNAMGWYRQAPGKERELVATITKSGGSTYYADSVKGRFTISRDNAKNTVYLQMNSLKPDDTSVYYCSAVRRYPVKYVAYDYWGQGTQVTVSS”, the “polyreactivity (PSR sort gate)” value is “low polyreactivity”.
With “QVQLVESGGGLVQAGGSLRLICAASGITFSYYALGRSRQAPGKERELVAAISVTGGSTYYADSVKGRFTISRDNAKNTVYLQMNSLKPEDTAVYYCAADSYYYDGDYWGQGTQVTVSS”, the “polyreactivity (PSR sort gate)” value was “high polyreactivity”.
On to “QVQLVESGGGLVQAGGSLRLICAASGITFVTYAMGWYRQAPGKERELVAAISRSGGRTYYADSVKGRFTISRDNAKNTVYLQMNSLKPEDTSVYYCAAERKNKYDYWGQGTQVTVSS”, for which the “polyreactivity (PSR sort gate)” value is reported as “high polyreactivity”.
As for “QVQLVESGGGLVQAGGSLRLICAASGITFYIYAMGWYRQAPGKERELVATISWSDGRTYYADSVKGRFTISRDNAKNTVYLQMNSLKPEDTAVYYCAADWWYYQFDYEYWGQGTQVTVSS”, the “polyreactivity (PSR sort gate)” value is on record as “low polyreactivity”.
Turning to “QVQLVESGGGLVQAGGSLRLICAASGLTFADYAMGWYRPAPGKERELVAAISRRGGSTYYADSVKGRFTISRDNAKNTVYLQMNSLKPEDTAVYYCAAYAYDVAFKRYKFDYWGQGTEVTVSS”, the “polyreactivity (PSR sort gate)” value is recorded as “high polyreactivity”.
For the sequence “QVQLVESGGGLVQAGGSLRLICAASGLTFNYYVMGWYRQAPGKERELVAAISYSGGRTYYADSVKGRFTISRDNANNTVYLQMNSLKPEDTAVYFCNVTGHRNSFIYYGGYEYWGQGTQVTVSS”, the “polyreactivity (PSR sort gate)” value was “high polyreactivity”.
For “QVQLVESGGGLVQAGGSLRLICAASGLTFRYYAMGWYRQAPGKERELVAAITRGGSTYYADSVKGRFTISRDNAKNTVYLQMNSLKPEDTAVYYCAAYDVRYNTYDYDYWGQGTQVTVSS”, the “polyreactivity (PSR sort gate)” value was “high polyreactivity”.
As for “QVQLVESGGGLVQAGGSLRLICAASGLTFSIYAMGWYRQAPGKERELVAAITGRGGRTYYADSVKGRFTISRDNAKNTVYLQMNSLKPEDTAVYYCAARYRGTDFDYWGQGTQVTVSS”, the “polyreactivity (PSR sort gate)” value is “high polyreactivity”.
With “QVQLVESGGGLVQAGGSLRLICAASGLTFSRYAMGWYRQAPGKERELVAAITWSGSSTYYADSVKGRFTISRDKAKNTVYLQMNSLKPEDTAVYYCAARYGYSRGPYYRSDYWGQGTQVTVSS”, the “polyreactivity (PSR sort gate)” value is listed as “high polyreactivity”.
For the sequence “QVQLVESGGGLVQAGGSLRLICAASGLTFYVNAMGWYRQAPGKERELVADISSGVSTNYADSVKGRFTISRDNAKNTVYLQMNSLKPEDTAVYYCNVERYKKLSRTHNYRRYNYWGQGTQVTVSS”, the “polyreactivity (PSR sort gate)” value is listed as “high polyreactivity”.
For the sequence “QVQLVESGGGLVQAGGSLRLICAASGNIFVPNAMGWYREAPGKEWELVAAIRRGGSTNYADSVKGRFTISRDNAKTTVYFQMNSLKPEDTAVYYCAKSRVSFTDLEGYYWGQGTQVTVSS”, the “polyreactivity (PSR sort gate)” value was “low polyreactivity”.
Under “QVQLVESGGGLVQAGGSLRLICAASGNTFYGYAMGWSRPAPGKERELVASITLSGDSTYYADSVKGRFTISRDNAKNTVYLQMNSLKPEDTAVYYCAGVYTYPLGYYHYTYDYWGQGTQVTVSS” stands “low polyreactivity”.
“QVQLVESGGGLVQAGGSLRLICAASGNTFYGYAMGWYRQAPGKERELVASITLSGDSTYYADSVKGRFTISRDNAKNTVYLQMNSLKPEDTAVYYCNRARHQYSRWHGGYYYWGQGTQVTVSS”: the “polyreactivity (PSR sort gate)” value was “low polyreactivity”.
To “QVQLVESGGGLVQAGGSLRLICAASGRIFALYAMGWYRQAPGKEREFVATITRGASTNYADSVKGRFTISRDNAKNTVYLQMNSLKPVDTAVYYCAAAGYKAAGRVVASYYWGQGTQVTVSS” belongs “high polyreactivity”; to “QVQLVESGGGLVQAGGSLRLICAASGRIFASYTMGWYRQAPGKERELVAGISRRGGSTYYADSVKGRFTISRDNAKNTVYLQMNSLKPEDTAVYYCAAVSSVFSVRYDYWGQGTQVTVSS”, “high polyreactivity”.
